From patent US20030039658 come the findings set out here.

Data set [1] deals with rGST-CTD, recombinant glutathione-S-transferase fusion protein containing a portion of the CTD of RPB1 of Pol II (UniProt P24928).
Data set [2] has as its target RPB1, the largest (220 kDa) subunit of Pol II, within purified Pol II (UniProt P24928).
Data set [3] has as its target FLAG-tagged DSIF p160 (FT-DSIFp160) (UniProt O00267).

Chain of Cyclin T1 (chain, as listed by the source): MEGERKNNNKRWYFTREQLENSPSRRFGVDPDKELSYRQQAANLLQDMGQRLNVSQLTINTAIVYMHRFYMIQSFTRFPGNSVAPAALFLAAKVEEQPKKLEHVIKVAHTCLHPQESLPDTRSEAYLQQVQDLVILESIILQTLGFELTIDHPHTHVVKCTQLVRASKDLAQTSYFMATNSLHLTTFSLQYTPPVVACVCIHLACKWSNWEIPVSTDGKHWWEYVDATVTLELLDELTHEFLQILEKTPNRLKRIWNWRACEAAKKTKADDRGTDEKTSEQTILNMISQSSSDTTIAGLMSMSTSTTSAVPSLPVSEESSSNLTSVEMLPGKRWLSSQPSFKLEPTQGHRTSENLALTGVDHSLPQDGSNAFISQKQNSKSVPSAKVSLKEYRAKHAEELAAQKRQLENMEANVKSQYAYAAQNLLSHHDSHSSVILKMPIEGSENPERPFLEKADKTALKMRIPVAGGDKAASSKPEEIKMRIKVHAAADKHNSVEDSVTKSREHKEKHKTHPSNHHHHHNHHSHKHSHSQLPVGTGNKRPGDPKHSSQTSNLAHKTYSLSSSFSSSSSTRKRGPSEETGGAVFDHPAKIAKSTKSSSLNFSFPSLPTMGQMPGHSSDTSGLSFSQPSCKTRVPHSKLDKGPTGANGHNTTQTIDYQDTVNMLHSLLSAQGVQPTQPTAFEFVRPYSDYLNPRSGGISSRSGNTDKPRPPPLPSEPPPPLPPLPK

Regarding FLAG-tagged CDK9 (FT-CDK9), the “in vitro kinase assay (phosphorylation of the substrate)” value in data set [1] was “The f:CDK9 immunopurified preparation was able to phosphorylate both rGST-CTD and RPB1 within Pol II”; in data set [2] it was “The f:CDK9 immunopurified preparation was able to phosphorylate both rGST-CTD and RPB1 within Pol II”; in data set [3] it was “the immunopurified f:CDK9 actively phosphorylated a circa 160 kDa polypeptide, most likely f:DSIF p160, within an immunopurified f:DSIF p160 preparation”. The “in vitro kinase assay (autophosphorylation of the preparation)” value in the data set on Cyclin T1 was “The FT-CDK9 immunopurification autophosphorylates specific components circa 45 kD and 87 kD, consistent with the molecular weights expected for Cyclin T1 and a FT-CDK9”.

For the substance “FLAG-tagged CDK9M (FT-CDK9M), CDK9 with the D167N mutation”, the “in vitro kinase assay (phosphorylation of the substrate)” value in data set [1] and in data set [2] was “significantly impaired in its ability to phosphorylate either rGST-CTD or RPB1 within Pol II” in each case. In the data set with Cyclin T1, the “in vitro kinase assay (autophosphorylation of the preparation)” value is listed as “The FT-CDK9M immunopurification was significantly weaker in its ability to autophosphorylate the 87 kD band”.
